In PMC9328939, “A Randomized Double‐Blind Placebo‐Controlled First‐In‐Human Phase 1 Trial of TransCon PTH in Healthy Adults” (Journal of Bone and Mineral Research, 2020):

What was measured:
[1] = test system: anti-PTH binding antibodies; experiment: Anti-PTH binding antibodies, electrochemiluminescence bridging assay; type: in vivo, human; settings: MAD cohorts, serum predose and day 14; screening and confirmatory assay
Method: (§1) Twice‐daily 12‐hour urine samples (including calcium, phosphorus, magnesium, and creatinine) were also collected. In MAD cohorts, serum samples collected from TransCon PTH‐treated and placebo‐treated subjects predose and postdose on day 14 were analyzed for anti‐PTH binding antibodies by BioAgilytix (Durham, NC, USA) using an electrochemiluminescence bridging assay. Samples were analyzed using a multitiered approach consisting of a screening assay and a confirmatory assay.

[2] = Pharmacokinetics of Free PTH after a single s.c. dose of TransCon PTH (SAD cohorts); type: in vivo, human; settings: for Free PTH tmax: median (min-max); for Free PTH Cmax / Free PTH t½ / Free PTH AUC0-t: geometric mean (CV%)
Method: (§2) Subjects attended a screening visit; those who met eligibility criteria were randomly assigned to a SAD or MAD cohort (n = 10/cohort; eight active and two placebo) and received a single or multiple dose(s) of TransCon PTH, respectively, via a syringe and 31G 8‐mm needle s.c. to the abdomen. Single TransCon PTH doses ranged from 3.5 to 124 μg PTH(1‐34) (containing PTH(1‐34) [Bachem AG, Bubendorf, Switzerland], identical to the first 34 amino acids of rhPTH). Multiple TransCon PTH doses administered daily for 10 days ranged from 3.5 to 24 μg PTH(1‐34)/day.
(§3) The primary PK endpoints therefore included Free PTH (defined as the sum of Free PTH(1‐34) and Free PTH(1‐33)) as well as TransCon PTH.
(§4) The PK samples were analyzed by PRA Health Sciences (Assens, the Netherlands); Free PTH was quantified using protein precipitation, liquid‐liquid extraction, and solid‐phase extraction followed by ultra high‐performance liquid chromatography with tandem mass spectrometry detection measuring the two peptides, PTH(1‐34) and PTH(1‐33), by collection of both transitions simultaneously. Free PTH was calculated only if samples contained quantifiable levels of both Free PTH(1‐34) and Free PTH(1‐33); ie, above 1.40 and 0.958 pg/mL for Free PTH(1‐34) and Free PTH(1‐33), respectively. No lower limit of quantification was calculated for Free PTH because the ratio between Free PTH(1‐34) and Free PTH(1‐33) is not constant.
(§5) The PK parameters were calculated using Phoenix WinNonlin, version 6.4 (Certara USA, Inc., Princeton, NJ, USA). For Free PTH, tmax was defined as the time to maximum observed concentration and Cmax was defined as the maximum observed concentration. […] Peak‐to‐trough was calculated as the ratio of Cmax to C24h at steady‐state.

healthy adults [3] = experiment: Pharmacodynamics: serum magnesium (sMg); type: in vivo, human; settings: MAD cohorts; data not shown
[4] = Pharmacokinetics of Free PTH after 10 daily s.c. doses of TransCon PTH (MAD cohorts); settings: for Free PTH AUC0-24h / Free PTH t½ / Free PTH Cmax: geometric mean (CV%); for Free PTH tmax: median (min-max)
Method: as §2, §3, §4, §5

healthy adults [5] = experiment: Pharmacodynamics: serum phosphate (sP); type: in vivo, human; settings: MAD cohorts, near steady-state (days 8 to 10); linear regression on dose, p = .0430
Method: All statistical analyses were performed using SAS 9.3 or higher (SAS Institute, Inc., Cary, NC, USA). Summary statistics were reported for continuous data, including mean, standard deviation, standard error, median, minimum, and maximum, whereas number and percentage of subjects within treatment groups were reported for categorical data. For sP and TMP/GFR, a linear regression model was performed for the change from baseline, with dose and baseline as independent variables at near steady‐state. Near steady‐state was defined as the average of predose values on day 8, 9, and 10. Dose was defined as a continuous variable where placebo was considered zero.

healthy adults [6] = experiment: Pharmacodynamics: fractional excretion of calcium (FECa); type: in vivo, human; settings: despite mild hypercalcemia, normal limits approximately 0.4% to 2%
Method: as §1

healthy adults [7] = experiment: Pharmacodynamics: suppression of intact endogenous PTH(1-84); type: in vivo, human
Method: The PD endpoints included albumin‐adjusted sCa, fractional excretion of calcium, sP, renal tubular maximum reabsorption of phosphate/glomerular filtration rate (TMP/GFR), intact endogenous PTH(1‐84), osteoblastic bone formation markers (serum bone‐specific alkaline phosphatase [BSAP] and P1NP), osteoclastic bone resorption markers (urine NTx and serum CTx), sMg, and 1,25‐dihydroxyvitamin D. PK samples were collected predose and at regular intervals postdose through 96 hours for the SAD cohorts and through day14 for the MAD cohorts.

[8] = single s.c. 72 μg PTH(1-34), n = 7
[9] = single s.c. 100 μg PTH(1-34), n = 8
[10] = single s.c. 124 μg PTH(1-34), n = 8
[11] = MAD, 12 μg PTH(1-34)/day s.c. x 10 days, n = 6
[12] = MAD, 16 μg PTH(1-34)/day s.c. x 10 days, n = 7
[13] = MAD, 20 μg PTH(1-34)/day s.c. x 10 days, n = 6
[14] = MAD, 24 μg PTH(1-34)/day s.c. x 10 days, n = 3
[15] = MAD cohorts, daily doses x 10 days

## TransCon PTH: long-acting, essentially inactive prodrug: PTH(1-34) transiently bound to an inert 40 kDa mPEG carrier via a proprietary autocleaving linker
[1]
  anti-PTH antibodies: No anti‐PTH antibodies were detected
[2]; single s.c. 48 μg PTH(1-34), healthy adults, n = 7
  Free PTH tmax: 8.0 (4.0–24.0) (n = 7) h
[2]; single s.c. 48 μg PTH(1-34), healthy adults, plasma, UHPLC-MS/MS, n = 7
  Free PTH Cmax: 6.61 (19.7) (n = 7) pg/mL
[2]; single s.c. 72 μg PTH(1-34), n = 5
  Free PTH t½: 54.4 (18.9) (n = 5) h
[2]; [8]
  Free PTH Cmax: 7.67 (28.5) (n = 7) pg/mL
  Free PTH tmax: 4.0 (4.0–60.3) (n = 7) h
[2]; single s.c. 72 μg PTH(1-34), healthy adults, plasma, UHPLC-MS/MS, n = 5
  Free PTH AUC0-t: 420 (20.3) (n = 5) h*pg/mL
[2]; single s.c. 100 μg PTH(1-34), n = 7
  Free PTH t½: 51.0 (32.4) (n = 7) h
[2]; [9]
  Free PTH AUC0-t: 594 (17.3) (n = 8) h*pg/mL
  Free PTH Cmax: 12.9 (11.7) (n = 8) pg/mL
  Free PTH tmax: 6.0 (4.0–8.0) (n = 8) h
[2]; single s.c. 124 μg PTH(1-34), n = 7
  Free PTH t½: 55.7 (37.1) (n = 7) h
[2]; [10]
  Free PTH AUC0-t: 684 (36.9) (n = 8) h*pg/mL
  Free PTH Cmax: 13.8 (45.5) (n = 8) pg/mL
  Free PTH tmax: 4.0 (4.0–60.0) (n = 8) h
Healthy adults [3]
  change in serum magnesium (sMg): nonsignificant increase
[4]; MAD, 12 μg PTH(1-34)/day s.c. x 10 days, healthy adults, plasma, UHPLC-MS/MS, n = 5
  Free PTH AUC0-24h: 122 (13.4) (n = 5) h*pg/mL
[4]; MAD, 12 μg PTH(1-34)/day s.c. x 10 days, n = 4
  Free PTH t½: 64.8 (39.2) (n = 4) h
[4]; [11]
  Free PTH Cmax: 6.24 (13.1) (n = 6) pg/mL
  Free PTH tmax: 4.0 (4.0–16.0) (n = 6) h
[4]; MAD, 16 μg PTH(1-34)/day s.c. x 10 days, n = 4
  Free PTH t½: 60.0 (20.3) (n = 4) h
[4]; MAD, 16 μg PTH(1-34)/day s.c. x 10 days, n = 5
  Free PTH AUC0-24h: 152 (9.4) (n = 5) h*pg/mL
[4]; [12]
  Free PTH Cmax: 6.87 (16.8) (n = 7) pg/mL
  Free PTH tmax: 8.0 (4.0–12.0) (n = 7) h
[4]; MAD, 20 μg PTH(1-34)/day s.c. x 10 days, n = 5
  Free PTH t½: 51.7 (44.5) (n = 5) h
[4]; [13]
  Free PTH AUC0-24h: 165 (21.7) (n = 6) h*pg/mL
  Free PTH Cmax: 8.30 (21.4) (n = 6) pg/mL
  Free PTH tmax: 6.1 (4.0–16.1) (n = 6) h
[4]; [14]
  Free PTH AUC0-24h: 231 (24.2) (n = 3) h*pg/mL
  Free PTH Cmax: 11.1 (27.6) (n = 3) pg/mL
  Free PTH t½: 69.0 (22.3) (n = 3) h
  Free PTH tmax: 7.9 (4.0–12.0) (n = 3) h
[4]; MAD, TransCon PTH 12 μg PTH(1-34)/day
  Free PTH level: 5 pg/mL
[4]; after multiple daily s.c. dosings, healthy adults
  mean effective half-life of Free PTH: approximately 60 hours
Healthy adults [5]
  change in serum phosphate (sP) from baseline: significant dose‐dependent decrease
Healthy adults [6]; [15]
  FECa (spot): remained essentially within normal limits
Healthy adults [6]; SAD cohorts, data not shown
  FECa: remained essentially within normal limits
Healthy adults [7]; [15]
  intact endogenous PTH(1-84): dose‐dependent suppression
Healthy adults [7]; SAD cohorts, data not shown
  intact endogenous PTH(1-84): dose‐dependent suppression
